Laboratory results published in patent US9290544B2, “Methods for making and using molecular switches involving circular permutation” (priority 2004, dated 2016).
Values joined by “and” are separate entries in the source; they are usually repeats but may differ in a detail not shown here. Identical values can stand only once. Like-named read-outs stand apart in the source and are kept apart here.

Key:
[1] = Carbenicillin hydrolysis by purified RG13, 25° C.; assay type: biochemical; conditions: 50 μM carbenicillin
Description: (§1) All kinetic assays were performed at 25° C. in the presence of 100 mM sodium phosphate buffer, pH 7.0. Ten μl of enzyme stock was added to 1.59 ml buffer (containing the saccharide, if desired). After incubation for 30 seconds, 0.4 ml of 5× substrate was added and the absorbance at the appropriate wavelength was recorded using the Cary50 UV-VIS spectrophotometer. The wavelength monitored was 486 nm, 240 nm, and 232 nm for nitrocefin, carbenicillin, and ampicillin respectively. From the initial rate of reaction the kinetic constants were determined using Eadie-Hofstee plots. […] The rate data was consistent with a small hysteretic effect (Brennan et al. 1994) and not substrate inhibition as preincubation of the enzyme with the substrate for one minute prevented the lag from occurring upon addition of more substrate. Therefore, the steady state parameters for nitrocefin hydrolysis in the absence of maltose were determined by measuring the rate at 1-2 minutes (well after the lag) and correcting the substrate concentration by subtracting the amount of substrate hydrolyzed. In all cases the extent of reaction at the point the rate was measured was less than 25%. In the presence of maltose, no lag was observed.

[2] = Steady state kinetics of nitrocefin hydrolysis, purified RG13 proteins, 25° C.; assay type: biochemical
Description: as §1

[3] = Nitrocefin hydrolysis in soluble fraction of cell lysates with and without 5 mM maltose (screen and confirmation of positives); assay type: biochemical; conditions: 50 μM nitrocefin
Description: Next, 50 μl of PopCulture (Novagen) and 2.5 unit of benzonase nuclease was added to each well and incubated for 15 minutes at room temperature to lyse the cells. The cells debris and any unlysed cells were pelleted by centrifugation and supernatant was recovered. In 96-well format, 60 μl of lysate was assayed for hydrolysis of nitrocefin (50 μM) by monitoring the increase in absorbance at 490 nm in 100 mM sodium phosphate buffer, pH 7.0, both with and without 5 mM maltose. Any lysate in which there was a difference in rate of more than 2-fold (between with and without maltose) was selected for retesting and further investigation.
Library members identified as having more than 200% switching activity in the 96-well plate screen were grown 24-48 hours in 100 ml LB media in 500 ml shaker flasks at 22° C. without IPTG. The cells were pelleted and resuspended in 8 ml assay buffer (100 mM sodium phosphate buffer, pH 7.0) and lysed by French press. The soluble fraction of this lysate was assayed for hydrolysis of nitrocefin (50 μM) at 22° C. as previously described (Guntas and Ostermeier 2004) both with and without 5 mM maltose. Initial rates were determined from absorbance at 486 nm monitored as a function of time. The enzyme was incubated at the assay temperature in the absence or presence of 5 mM maltose for four minutes prior to performing the assay. All assays contained 100 mM sodium phosphate buffer, pH 7.0. Library members for which there was a difference in the initial rate of more than about 2-fold were sequenced (Table 4). Switches RG-5-169 and RG-200-13 were also assayed in the presence of 5 mM sucrose or 5 mM glucose.

[4] = Hydrolysis of benzylpenicillin by RG-200-13 with and without 5 mM maltose; assay type: biochemical; conditions: pH 7.0, 22° C.
Description: A 6×His tag was added to the C-terminus of RG-200-13 (also termed “RG13” in Examples below) and the fusion was purified as previously described (Guntas and Ostermeier 2004). The protein was purified to approximately 60% purity. The kinetic constants and binding constants were determined from Eadie-Hofstee plots and Eadie plot equivalents, respectively, using a spectrophotometric assay for nitrocefin hydrolysis. Initial rates for nitrocefin hydrolysis were determined from absorbance at 486 nm monitored as a function of time. The enzyme was incubated at the assay temperature in the absence or presence of saccharide for four minutes prior to performing the assay. All assays contained 100 mM sodium phosphate buffer, pH 7.0. The dissociation constant for maltose was determined using change in velocity of nitrocefin hydrolysis as a signal.
Maltose binding had the largest effect on cephalothin (of the substrates tested), with the velocity of cephalothin hydrolysis being 32-fold higher in the presence of maltose than in its absence.

[5] = Maltose affinity by intrinsic protein fluorescence; assay type: binding
Description: Maltose affinity for RG13 (in presence and absence of 10 mM carbenicillin) and RG13(1329W) (in the absence of substrate) was determined using intrinsic protein fluorescence measured on a Photon Technology QuantaMaster QM-4 spectrofluorometer. Fluorescence spectra were obtained at 25° C. at different concentrations of maltose in 50 mM sodium phosphate buffer, pH 7.0, containing 100 mM sodium chloride. The protein concentration was 50-100 nM. Excitation was at 280 nm. The quenching in fluorescence intensity at 341 nm caused by maltose was used in Eadie-Hofstee equivalent plots to determine Kd using the following equation:
[formula] where ΔF is the change in fluorescence intensity, ΔFmax is the difference in fluorescence between no maltose and saturating amounts of maltose and [L] is the maltose concentration. The fluorescence quenching of RG13(1329W/A96W) upon addition of maltose was insufficient to accurately determine a Kd by this method. The dissociation constant for maltose and RG13(I329W) in the presence of saturating carbenicillin (2 mM) was determined by measuring the initial rate of carbenicillin hydrolysis as a function of maltose concentration. The apparent dissociation constant in the presence of subsaturating concentrations of nitrocefin (25 μM) for all three proteins was determined by measuring the initial rate of nitrocefin hydrolysis as a function of maltose concentration.

[6] = 96-well colorimetric nitrocefin hydrolysis screen of lysates with or without 5 mM maltose; assay type: biochemical; conditions: 50 μM nitrocefin
Description: The naïve library was plated on LB agar plates supplemented with 200 μg/ml ampicillin and 50 mM maltose and incubated at 37° C. overnight. From these plates, 1056 colonies were picked to inoculate 1 ml LB media (supplemented with 50 μg/ml chloramphenicol and 1 mM IPTG) in 96-well format. After incubation overnight at 37′C, each culture was lysed using 0.1 ml Popculture reagent, 40 units of rLysozyme, and 2.5 units of benzonase nuclease. Lysates were centrifuged to pellet the insoluble material and the soluble fractions were assayed in 96-well format for nitrocefin hydrolysis in the presence or absence of 5 mM maltose using a colorimetric assay for nitrocefin hydrolysis (Posey et al. 2002). The assays were carried out at room temperature using the Spectramax-384 Plus microplate reader (Molecular Devices) in the presence of 100 mM sodium phosphate buffer and 50 μM nitrocefin in a 200 μl reaction volume.

[7] = effector maltose 5 mM (saturating)
[8] = effector maltose 5 mM (saturating), nitrocefin, 25° C.
[9] = effector β-cyclodextrin 5 mM, nitrocefin, 25° C.
[10] = no effector, nitrocefin, pH 7.0, 25° C.

For “RG13: MBP-BLA fusion switch MBP[1-316]-BLA[227-286]-GSGGG-BLA[24-226]-S-MBP[319-370]; SEQ ID NO: 61”, the “Rate increase with maltose” value [1] was 12 fold, the “Increase in the reaction rate on addition of subsaturating maltose” value ([2]; 20 μM nitrocefin, 2.5 nM RG13, 2 ml, 20 μl of 1 M maltose added (FIG. 7B)) was 10 fold and the “Km Ratio (with effector)/(without effector)” value ([2]; effector maltose 5 mM) was 0.12 ± 0.03. For the same substance, the “kcat Ratio (with effector)/(without effector)” value [2, 7] was 3 and 3.1 ± 0.6, the “kcat/Km Ratio (with effector)/(without effector)” value [2, 7] was 25 and 25 ± 7 and the Km [2, 8] was 68 ± 4 µM. The kcat [2, 8] was 620 ± 60 s⁻¹ and 620 ± 30 s⁻¹, the “Km Ratio (with effector)/(without effector)” value ([2]; effector β-cyclodextrin 5 mM) was 1.6 ± 0.4 and the “kcat Ratio (with effector)/(without effector)” value ([2]; effector β-cyclodextrin 5 mM) was 2.9 ± 0.6. The “kcat/Km Ratio (with effector)/(without effector)” value ([2]; effector β-cyclodextrin 5 mM) was 1.8 ± 0.6, the Km [2, 9] was 870 ± 90 µM and the kcat [2, 9] was 590 ± 60 s⁻¹. The “Decrease of Km with saturating amounts of maltose” value ([2]; nitrocefin, 25° C.) was 8 fold, the Km [2, 10] was 550 ± 120 µM and the kcat [2, 10] was 200 ± 40 s⁻¹. The “Effect of non-ligands on rate of nitrocefin hydrolysis” value ([2]; sucrose, lactose and galactose 5 mM, 20 μM nitrocefin (FIG. 7A)) was “no effect”, the “Increase in the rate of nitrocefin hydrolysis upon addition of ligand” value ([2]; β-cyclodextrin 5 mM, 20 μM nitrocefin (FIG. 7A)) was 2 fold and the “Effect of 5 mM sucrose or 5 mM glucose on velocity of nitrocefin hydrolysis” value ([3]; 22° C., lysate soluble fraction) was “Neither sugar affected the velocity of nitrocefin hydrolysis”. The “Switching effect: percent change in velocity of nitrocefin hydrolysis in the presence of 5 mM maltose” value ([3]; 5 mM maltose, 100 mM sodium phosphate buffer, pH 7.0) was “+1650%”, the “Approximate fold increase in velocity of benzylpenicillin hydrolysis in the presence of 5 mM maltose” value ([4]; substrate benzylpenicillin 100 μM) was roughly 17 fold and the “Approximate fold increase in velocity of benzylpenicillin hydrolysis in the presence of 5 mM maltose” value ([4]; substrate benzylpenicillin 500 μM) was roughly 7 fold. The Kd ([5]; 10 mM carbenicillin, 25° C., read-out: Kd maltose, Saturating Carbenicillin, IPF) was 1.3 ± 0.5 µM, the Kd ([5]; intrinsic protein fluorescence, 100 mM NaCl, 50 mM NaPO4, pH 7.0, 25° C., read-out: Kd maltose, No Substrate) was 5.5 µM and 5 to 6 µM and the Kd ([5]; text of Example 3, read-out: Dissociation constant for maltose in the presence of saturating amounts of carbenicillin) was roughly 1 µM. For the same substance, the “Increase of initial velocity of nitrocefin hydrolysis in the presence of maltose” value [6] was 17 fold.
